Results published in the RNAGym collection of RNA variant scans (doi:10.7554/elife.80360).

B1: Hairpin Ribozyme (parent)
chain: GUCCUCUUUCACGUGCGCGUGAAAGAGAGAAGUGAACCAGAGAAACACACGUUGUGGUAUAUUACCUGGUA

Variants of: B1
Assay: self-cleavage, relative activity (ratio to wild type); higher = more cleavage; co-transcriptional

First: GUCCUCUUUCACGUGCGCGUGAAAGAGAGAAGUGAACCAGAAAAACACACGUUGUGGUAUGUUACCUGGUA [G42A A61G]
Second: GUCCUCUUUCACGUGCGCGUGAAAGAGAGAAGUGAACCAGAAAAACACACGUUGUGGUAUAUUACGUGGUA [G42A C66G]
The self-cleavage of the first is higher: 0.201 for the first, 0.113 for the second.

Going from GUCCUCUUUCACGUGCGCGUGAAAGAGAGAAGUGAACCAGAAAAACACACGUUGUGGUAUAUUACAUGGUA [G42A C66A] to GUCCUCUUUCACGUGCGCGUGAAAGAGAGAAGUGAACCAGAAAAACACACGUUGUGGUGUAUUACCUGGUA [G42A A59G], the self-cleavage rises from 0.0634 to 0.264.

Compared with GUCCUCUUUCACGUGCGCGUGAAAGAGAGAAGUGAACCAGAAAAACACACGUUGUGGUUUAUUACCUGGUA [G42A A59U], GUCCUCUUUCACGUGCGCGUGAAAGAGAGAAGUGAACCAGAAAAACACAGGUUGUGGUAUAUUACCUGGUA [G42A C50G] is higher in self-cleavage: 0.101 for the first, 0.128 for the second.

First: GUCCUCUUUCACGUGCGCGUGAAAGAGAGAAGUGAACCAGAAAAACACAUGUUGUGGUAUAUUACCUGGUA [G42A C50U]
Second: GUCCUCUUUCACGUGCGCGUGAAAGAGAGAAGUGAACCAGAAAAACCCACGUUGUGGUAUAUUACCUGGUA [G42A A47C]
The self-cleavage of the first is lower: 0.106 for the first, 0.219 for the second.

Going from GUCCUCUUUCACGUGCGCGUGAAAGAGAGAAGUGAACCAGAAAAACACACGUUGUGGUACAUUACCUGGUA [G42A U60C] to GUCCUCUUUCACGUGCGCGUGAAAGAGAGAAGUGAACCAGUGAAACACACGUUGUGGUAUAUUACCUCGUA [A41U G68C], the self-cleavage falls from 0.371 to 0.262.

First: GUCCUCUUUCACGUGCGCGUGAAAGAGAGAAGUGAACCAGUGAAACACACGUUGUGGUAUAUUACCUUGUA [A41U G68U]
Second: GUCCUCUUUCACGUGCGCGUGAAAGAGAGAAGUGAACCAGUGAAACACACGUUGUGGUAUAUUACCGGGUA [A41U U67G]
The self-cleavage of the first is lower: 0.423 for the first, 0.534 for the second.

First: GUCCUCUUUCACGUGCGCGUGAAAGAGAGAAGUGAACCAGUGAAACACACGUUGUGGUAUAUUACCAGGUA [A41U U67A]
Second: GUCCUCUUUCACGUGCGCGUGAAAGAGAGAAGUGAACCAGAAUAACACACGUUGUGGUAUAUUACCUGGUA [G42A A43U]
The self-cleavage of the first is higher: 0.364 for the first, 0.215 for the second.

Compared with GUCCUCUUUCACGUGCGCGUGAAAGAGAGAAGUGAACCAGUGAAACACACGUUGCGGUAUAUUACCUGGUA [A41U U55C], GUCCUCUUUCACGUGCGCGUGAAAGAGAGAAGUGAACCAGUGAAACACACGUUGAGGUAUAUUACCUGGUA [A41U U55A] is higher in self-cleavage: 0.762 for the first, 0.808 for the second.

Compared with GUCCUCUUUCACGUGCGCGUGAAAGAGAGAAGUGAACCAGUGAAACACACGUUGGGGUAUAUUACCUGGUA [A41U U55G], GUCCUCUUUCACGUGCGCGUGAAAGAGAGAAGUGAACCAGAAAAACAUACGUUGUGGUAUAUUACCUGGUA [G42A C48U] is lower in self-cleavage: 0.485 for the first, 0.0486 for the second.

Compared with GUCCUCUUUCACGUGCGCGUGAAAGAGAGAAGUGAACCAGAAAAACACACGUUGUGGUAUAUUCCCUGGUA [G42A A64C], GUCCUCUUUCACGUGCGCGUGAAAGAGAGAAGUGAACCAGAAAAGCACACGUUGUGGUAUAUUACCUGGUA [G42A A45G] is higher in self-cleavage: 0.129 for the first, 0.138 for the second.

Going from GUCCUCUUUCACGUGCGCGUGAAAGAGAGAAGUGAACCAGAAAAAAACACGUUGUGGUAUAUUACCUGGUA [G42A C46A] to GUCCUCUUUCACGUGCGCGUGAAAGAGAGAAGUGAACCAGUGAAACACACGUUGUGGAAUAUUACCUGGUA [A41U U58A], the self-cleavage rises from 0.152 to 1.2.

Compared with GUCCUCUUUCACGUGCGCGUGAAAGAGAGAAGUGAACCAGUGAAACACACGUUGUGGGAUAUUACCUGGUA [A41U U58G], GUCCUCUUUCACGUGCGCGUGAAAGAGAGAAGUGAACCAGAAAAACACACGCUGUGGUAUAUUACCUGGUA [G42A U52C] is lower in self-cleavage: 1.02 for the first, 0.208 for the second.

First: GUCCUCUUUCACGUGCGCGUGAAAGAGAGAAGUGAACCAGAAAAACACACGGUGUGGUAUAUUACCUGGUA [G42A U52G]
Second: GUCCUCUUUCACGUGCGCGUGAAAGAGAGAAGUGAACCAGUGAAACACACGUCGUGGUAUAUUACCUGGUA [A41U U53C]
The self-cleavage of the first is lower: 0.0884 for the first, 1.25 for the second.

Going from GUCCUCUUUCACGUGCGCGUGAAAGAGAGAAGUGAACCAGAAAAACACACGUUGCGGUAUAUUACCUGGUA [G42A U55C] to GUCCUCUUUCACGUGCGCGUGAAAGAGAGAAGUGAACCAGAAAAACACACGUUGAGGUAUAUUACCUGGUA [G42A U55A], the self-cleavage rises from 0.103 to 0.104.

Going from GUCCUCUUUCACGUGCGCGUGAAAGAGAGAAGUGAACCAGAAAAACACACGUUGGGGUAUAUUACCUGGUA [G42A U55G] to GUCCUCUUUCACGUGCGCGUGAAAGAGAGAAGUGAACCAGUGAAACACACGUUGUGGUAGAUUACCUGGUA [A41U U60G], the self-cleavage rises from 0.249 to 1.15.

First: GUCCUCUUUCACGUGCGCGUGAAAGAGAGAAGUGAACCAGAAAAACACACGUUGUGGUAUAUUACCUGCUA [G42A G69C]
Second: GUCCUCUUUCACGUGCGCGUGAAAGAGAGAAGUGAACCAGUGAAACACACGUUGUGGUAUAUAACCUGGUA [A41U U63A]
The self-cleavage of the first is higher: 0.118 for the first, 0.105 for the second.

First: GUCCUCUUUCACGUGCGCGUGAAAGAGAGAAGUGAACCAGAAAAACACACGUUGUGGUAUAUUACCUGGUU [G42A A71U]
Second: GUCCUCUUUCACGUGCGCGUGAAAGAGAGAAGUGAACCAGAAAAACACACGUUGUGGUAUAUUACCUGGUC [G42A A71C]
The self-cleavage of the first is lower: 0.159 for the first, 0.566 for the second.

Compared with GUCCUCUUUCACGUGCGCGUGAAAGAGAGAAGUGAACCAGUGAAACACACGAUGUGGUAUAUUACCUGGUA [A41U U52A], GUCCUCUUUCACGUGCGCGUGAAAGAGAGAAGUGAACCAGUGAAACACACGCUGUGGUAUAUUACCUGGUA [A41U U52C] is lower in self-cleavage: 1.23 for the first, 1.11 for the second.

Compared with GUCCUCUUUCACGUGCGCGUGAAAGAGAGAAGUGAACCAGAAAAACACACGUUGUGCUAUAUUACCUGGUA [G42A G57C], GUCCUCUUUCACGUGCGCGUGAAAGAGAGAAGUGAACCAGAAAAACACACGUUGUGAUAUAUUACCUGGUA [G42A G57A] is higher in self-cleavage: 0.0908 for the first, 0.14 for the second.
